In patent publication US12286461B2, “Recombinant fused polypeptide and use thereof” (priority 2019, dated 2025):

How the values were obtained:
[1] = tested on: SD rats with bleomycin-induced pulmonary fibrosis; test: Bleomycin-induced pulmonary fibrosis animal model; format: in vivo; conditions: for Survival rate (%): bleomycin 5 mg/kg intratracheal, dosage 10 mg/kg (Table 2), administration cycle 15 days from day 7 after modeling; for content of TGF-β1 in serum, difference from the model group: fused polypeptides 10 mg/kg s.c. once every five days, nintedanib 25 mg/kg intragastric once a day
Procedure: SD rats were anesthetized by intraperitoneal injection of 4% chloral hydrate with a concentration of 1 mL/100 g. After anesthesia, the rats were fixed and their necks were disinfected by using cotton with 75% alcohol. The skin of the rat neck was longitudinally cut with scissors, and the fascia and muscle were longitudinally bluntly torn with tweezers to expose the trachea. A syringe was inserted into the trachea to inject 5 mg/kg bleomycin, while a blank group was injected with an equal amount of normal saline. Then a rat plate was quickly erected and rotated, the rats' breathing was observed, the neck wound was sterilized after rotation and was sewn, and an amoxicillin anti-inflammatory drug was sprinkled on the suture. After the operation, the rats were put back into a dry and clean cage for resting, waiting for awakening. The rats were awakened after about 1-2 hours, and then fed normally. On the 7th day after modeling, modeling group animals randomly fell into a model group, a Nintedanib positive drug group, recombinant fused polypeptide 1, 2, 3 and 4 dosage groups, and a normal control group, and the groups were administered separately for an administration cycle of 15 days. Living situations of rats were observed every day and their weights were weighed. After administration for 15 days, the eyeballs were removed and blood was taken, the rats were dissected, and lungs were taken. The content of TGF-β1 in serum and the content of HYP in lung tissues were detected.

[2] = tested on: SD rats with CCl4-induced hepatic fibrosis; test: CCl4-induced hepatic fibrosis animal model; format: in vivo; conditions: 40% CCl4 i.p. twice a week for 8 weeks, fused polypeptides 6 mg/kg s.c. once every five days
Procedure: Modeling was performed on the rats. Each group other than the blank group was injected with 40% CCl4 intraperitoneally twice a week, the first injection was performed at 3 mL/kg, and then injection was performed at 2 mL/kg. Modeling was performed for 8 weeks to induce hepatic fibrosis. After the intraperitoneal injection of CCl4 for the fourth time, the drugs were administered according to Table 3. After induction for 8 weeks, the administration was stopped. The SD rats were dissected the next day, and blood was taken. The liver tissue was stored in a refrigerator at −80° C. for further use. The expression of HYP in the hepatic tissue of rats was detected. [table]

adenovirus = test: Mouse pneumonia model, viral pneumonia; format: in vivo; conditions: BALB/C mouse pneumonia model, nasal drip; average ± standard deviation
Text: (§1) A mouse pneumonia model was successfully established by using a nasal drip method. BALB/C mice with a body weight of 18-24 g were selected, and then anesthetized with ether on day 0, day 1 and day 2, respectively, prepared Streptococcus pneumoniae bacteria solution, adenovirus concentrated solution, Mycoplasma pneumoniae, Chlamydia pneumoniae, protozoa and pneumonia fungi were slowly dropped into the nasal cavity of the mice, so that the bacteria solutions entered the trachea and bronchi, and the bacteria solutions were prevented from flowing into the esophagus during the operation to avoid inactivation of the bacteria solutions, so that the mouse pneumonia model was established. After the model was successfully established, the recombinant fused polypeptides according to the present invention were administered.

pulmonary infections = test: Mouse pneumonia model, pneumonia caused by pulmonary infections; format: in vivo, BALB/C mice; conditions: BALB/C mouse pneumonia model, nasal drip, average ± standard deviation
Text: as §1

Chlamydia pneumoniae = test: Mouse pneumonia model, chlamydia pneumonia; format: in vivo; conditions: BALB/C mouse pneumonia model, nasal drip; average ± standard deviation
Text: as §1

pneumonia fungi = test: Mouse pneumonia model, fungal pneumonia; format: in vivo; conditions: BALB/C mouse pneumonia model, nasal drip; average ± standard deviation
Text: as §1

Mycoplasma pneumoniae = test: Mouse pneumonia model, mycoplasma pneumonia; format: in vivo; conditions: BALB/C mouse pneumonia model, nasal drip; average ± standard deviation
Text: as §1

Streptococcus pneumoniae = test: Mouse pneumonia model, bacterial pneumonia; format: in vivo; conditions: BALB/C mouse pneumonia model, nasal drip; average ± standard deviation
Text: as §1

protozoa = test: Mouse pneumonia model, protozoal pneumonia; format: in vivo; conditions: BALB/C mouse pneumonia model, nasal drip; average ± standard deviation
Text: as §1

[3] = tested on: SD rats with renal fibrosis; test: Renal fibrosis animal model (ureter ligation); format: in vivo; conditions: 6 mg/kg s.c. once every five days, after 15 days
Procedure: A renal fibrosis animal model was established. SD rats were anesthetized with 4% chloral hydrate, injected with 1 mL/100 g intraperitoneally, fixed to an operation board, and sterilized in an operation area for further use. […] Muscular layers and abdominal walls were sewed layer by layer, the suture was disinfected with alcohol. After SD rats woke up, the rats were put into a cage for feeding. In the blank group, ureter was not ligated, and other steps were the same.
Then, the animals fell into a blank group, a model group, and recombinant fused polypeptide administration groups, and the administration was started on the second day after the operation, and was performed for 15 days. After administration for 15 days, blood was taken and supernatant was taken to detect the content of TGF-β1 in serum.

[4] = tested on: mice with bleomycin-induced skin fibrosis; test: Bleomycin-induced skin fibrosis model; format: in vivo, C57/BL black mice; conditions: C57/BL mice, bleomycin 10 μg/mL s.c. daily for 28 days, 10 mg/kg s.c. once every five days, 6 times, FIG. 6
Procedure: Bleomycin (10 μg/mL) was injected subcutaneously every day for 28 days to form skin fibrosis. During the modeling period, the administration groups were given drugs for treatment. After modeling, the mice were killed on the next day, and the skin tissue of the mouse back was taken to detect the content of HYP in the skin tissue. [table]

[5] = tested on: mice with myocardial fibrosis; test: Isoprenaline-induced myocardial fibrosis animal model; format: in vivo; conditions: BALB/c mice, isoprenaline 5 mg/kg s.c. daily for 7 days, 12 mg/kg s.c. (Table 5), after the 8th day, FIG. 5
Procedure: In the model group, the experimental mice were injected with isoprenaline (ISO) (5 mg/kg) subcutaneously on the back of the mice every day for 7 consecutive days, and the mice were injected with normal saline subcutaneously (200 μL/mouse) every day. In the blank group, normal saline was injected subcutaneously (200 μL/mouse) every day. […] After the 8th day, blood was taken and was centrifuged, the supernatant was taken, and the content of TGF-β1 in serum was detected.

[6] = listed as recombinant fused polypeptide I

## COC(=O)c1ccc2c(c1)NC(=O)/C2=C(\Nc1ccc(N(C)C(=O)CN2CCN(C)CC2)cc1)c1ccccc1 [Nintedanib, nintedanib, reference compound]
[1]
  Survival rate (%): 85.7%
[1]; bleomycin pulmonary fibrosis, after 15 days, FIG. 2
  content of TGF-β1 in serum, difference from the model group: highly significantly different from the model group (**P<0.01)
[2]; FIG. 3
  content of HYP in liver tissue, difference from the model group: highly significantly different from the model group (***P<0.001)

## Penicillin [reference compound]
adenovirus
  Inhibitory effect, Viral pneumonia: 50.07 ± 5.12
Pulmonary infections
  Inhibitory effect, Pneumonia caused by pulmonary infections: 45.78 ± 3.65
Chlamydia pneumoniae
  Inhibitory effect, Chlamydia pneumonia: 39.13 ± 5.23
Pneumonia fungi
  Inhibitory effect, Fungal pneumonia: 38.89 ± 2.24
Mycoplasma pneumoniae
  Inhibitory effect, Mycoplasma pneumonia: 43.21 ± 4.56
Streptococcus pneumoniae
  Inhibitory effect, Bacterial pneumonia: 39.21 ± 5.35
protozoa
  Inhibitory effect, Protozoal pneumonia: 45.62 ± 5.43

B1: PRCWRGEGGGGIVRRADRAAVPGGGGRGDGGGGSGGGGSGGGGSSDKPGGGGTSLDASIIWAMMQNGGGGLSKL (protein)
chain: PRCWRGEGGGGIVRRADRAAVPGGGGRGDGGGGSGGGGSGGGGSSDKPGGGGTSLDASIIWAMMQNGGGGLSKL
notes: Recombinant fused polypeptide X-linker1-Y expressed in 293 cells
adenovirus
  Inhibitory effect, Viral pneumonia: 54.68 ± 5.23
[3]; FIG. 4, listed as recombinant fused polypeptide 1, 6 mg/kg
  content of TGF-β1 in serum, difference from the model group: highly significantly different from the model group (***P<0.001)
[3]; FIG. 4, listed as recombinant fused polypeptide I, 6 mg/kg
  content of TGF-β1 in serum, difference from the model group: can lower the TGF-β1 content
[4]; listed as recombinant fused polypeptide 1, 10 mg/kg
  content of HYP in skin tissue, difference from the model group: highly significantly different from the model group (**P<0.01)
[4]; listed as recombinant fused polypeptide I, 10 mg/kg
  content of HYP in skin tissue, difference from the model group: can lower the hydroxyproline content
[1]
  Survival rate (%): 85.7%
[1]; listed as fused polypeptide 1
  Survival rate (%): equivalent to that of the positive drug group
[1]; bleomycin pulmonary fibrosis, 10 mg/kg s.c. once every five days, after 15 days, FIG. 1
  hydroxyproline (HYP) content in lung tissue: can lower the hydroxyproline content
[1]; bleomycin pulmonary fibrosis, after 15 days, FIG. 2, listed as fused polypeptide 1
  content of TGF-β1 in serum, difference from the model group: highly significantly different from the model group (**P<0.01)
[1]; bleomycin pulmonary fibrosis, after 15 days, FIG. 2, listed as recombinant fused polypeptide I
  content of TGF-β1 in serum, difference from the model group: can lower the TGF-β1 content
Pulmonary infections
  Inhibitory effect, Pneumonia caused by pulmonary infections: 52.47 ± 4.28
Pulmonary infections; [6]
  Inhibitory effect, Pneumonia caused by pulmonary infections: inhibitory effect
Chlamydia pneumoniae
  Inhibitory effect, Chlamydia pneumonia: 39.26 ± 4.66
Pneumonia fungi
  Inhibitory effect, Fungal pneumonia: 49.68 ± 5.74
Mycoplasma pneumoniae
  Inhibitory effect, Mycoplasma pneumonia: 38.47 ± 4.35
Streptococcus pneumoniae
  Inhibitory effect, Bacterial pneumonia: 38.43 ± 8.25
[2]; FIG. 3, listed as Recombinant fused polypeptide 1
  content of HYP in liver tissue, difference from the model group: highly significantly different from the model group (***P<0.001)
[2]; FIG. 3, listed as recombinant fused polypeptide I
  content of HYP in liver tissue, difference from the model group: can lower the HYP content
protozoa
  Inhibitory effect, Protozoal pneumonia: 54.26 ± 5.32
[5]; listed as recombinant fused polypeptide 1
  content of TGF-β1 in serum, difference from the model group: significantly different from the model group (**P<0.01)
[5]; [6]
  content of TGF-β1 in serum, difference from the model group: can lower the TGF-β1 content
